Assay [1] deals with Glu-plasminogen (Homo sapiens (Human)) (UniProt P00747). The assay can be described thus: competition of Glu-Plg (2 µM) binding to PMA-stimulated U937 cells by µ-plasmin-KD1L17R-KT complex, read by plasmin generation; Kd from IC50 by Cheng-Prusoff.
The target of assay [2] is T1, human plasmin (human, UniProt P00747 97-810, limits assumed). Nature of the assay: plasmin amidolytic activity inhibition, S-2251 substrate.
Assay [3] has as its target T2, active site-blocked human plasmin (human, UniProt P00747 97-810, limits assumed, active site blocked with a chloromethylketone inhibitor (e.g., D-Val-Phe-Lys chloromethylketone dihydrochloride)).
T2 construct: also called immobilized plasmin
Nature of the assay: SPR (BiaCore), active site-blocked plasmin on CM5 chip, polypeptide as analyte at 1-10 µM.

Assay [4] deals with T1, human plasmin. Nature of the assay: cell-based or functional assay.
Assay [5] deals with T3, factor VIIa-tissue factor (soluble human tissue factor 100 nM and factor VIIa 50 nM) (human), P08709.
T3 chain 1: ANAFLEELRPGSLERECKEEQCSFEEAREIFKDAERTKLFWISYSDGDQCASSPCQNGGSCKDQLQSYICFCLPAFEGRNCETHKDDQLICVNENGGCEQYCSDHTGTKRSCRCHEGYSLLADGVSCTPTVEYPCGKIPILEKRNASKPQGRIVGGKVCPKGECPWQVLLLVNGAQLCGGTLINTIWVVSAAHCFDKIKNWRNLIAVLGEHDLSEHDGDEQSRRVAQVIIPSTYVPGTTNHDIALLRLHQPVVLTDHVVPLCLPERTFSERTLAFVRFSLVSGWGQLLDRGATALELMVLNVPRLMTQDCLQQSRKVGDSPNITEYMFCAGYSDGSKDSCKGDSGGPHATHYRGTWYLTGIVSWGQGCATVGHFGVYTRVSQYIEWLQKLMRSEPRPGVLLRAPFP
T3 chain 2: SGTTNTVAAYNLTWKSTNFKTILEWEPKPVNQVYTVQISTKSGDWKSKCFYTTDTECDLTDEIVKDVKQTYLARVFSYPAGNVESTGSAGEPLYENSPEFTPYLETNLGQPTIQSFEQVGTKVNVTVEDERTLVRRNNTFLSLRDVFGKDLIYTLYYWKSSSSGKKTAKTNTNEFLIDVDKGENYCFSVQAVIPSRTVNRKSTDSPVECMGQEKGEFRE
The assay can be described thus: factor VIIa-tissue factor amidolytic activity inhibition, S-2288 substrate. The note with it: remark: other sources report otherwise.

Assay [6] has as its target T2, active site-blocked human plasmin. The assay can be described thus: SPR (BiaCore), active site-blocked plasmin on CM5 chip, polypeptide as analyte at 1-12 µM. Background: Surface plasmon resonance follows binding to a sensor surface in real time, without labels.
For assay [7], the target named is T4, Glu-plasminogen (Homo sapiens (Human), UniProt P00747 20-810, Native glycoprotein; the glycans are not carried by the letters.).
T4 construct: also called Glu-Plg
Nature of the assay: SPR, upper end tied to Glu-Plg by paragraph 202.

Assay [8] has as its target T1, human plasmin. Nature of the assay: plasmin amidolytic activity inhibition, S-2251 substrate, 3 nM plasmin, tight-binding equation.
Assay [9] concerns the target T5, tissue plasminogen activator (Alteplase) (UniProt P00750 36-562).
T5 construct: also called tPA
Nature of the assay: SPR, lower end tied to tPA by paragraph 202.

Assay [10] concerns the target T5, tissue plasminogen activator (Alteplase). The assay can be described thus: SPR (Biacore T100, 25 °C), tPA on CM5 chip, 1:1 binding model.
The target in assay [11] is T4, Glu-plasminogen. Nature of the assay: SPR (Biacore T100, 25 °C), Glu-Plg on CM5 chip, 1:1 binding model.

Usually Kd stands for the equilibrium constant for the complex coming apart. A higher Kd goes with lower affinity. One may read the Ki as the equilibrium dissociation constant of an inhibitor or competing ligand from its target. A word on the koff: it is a measure of how fast the partners let go of each other. Higher therefore signals fast dissociation. What is called kon is a measure of how fast the partners come together. Read a low kon as slower complex formation.

T5 sequence (P00750 36-562 limits assumed): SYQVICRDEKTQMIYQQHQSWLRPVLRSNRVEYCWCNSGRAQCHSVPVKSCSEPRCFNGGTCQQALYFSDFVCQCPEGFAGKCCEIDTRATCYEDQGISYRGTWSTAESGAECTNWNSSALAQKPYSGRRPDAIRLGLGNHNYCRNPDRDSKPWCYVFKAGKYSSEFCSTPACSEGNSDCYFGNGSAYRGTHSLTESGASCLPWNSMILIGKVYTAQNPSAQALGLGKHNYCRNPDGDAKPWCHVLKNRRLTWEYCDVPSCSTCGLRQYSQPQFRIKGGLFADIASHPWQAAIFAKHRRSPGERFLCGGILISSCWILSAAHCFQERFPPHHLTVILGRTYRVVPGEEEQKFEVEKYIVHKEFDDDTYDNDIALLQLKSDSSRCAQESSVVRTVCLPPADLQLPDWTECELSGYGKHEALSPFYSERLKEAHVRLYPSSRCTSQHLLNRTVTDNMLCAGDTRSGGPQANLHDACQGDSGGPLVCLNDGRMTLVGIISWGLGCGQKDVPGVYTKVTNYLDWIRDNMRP
T4 sequence (P00747 20-810 limits assumed): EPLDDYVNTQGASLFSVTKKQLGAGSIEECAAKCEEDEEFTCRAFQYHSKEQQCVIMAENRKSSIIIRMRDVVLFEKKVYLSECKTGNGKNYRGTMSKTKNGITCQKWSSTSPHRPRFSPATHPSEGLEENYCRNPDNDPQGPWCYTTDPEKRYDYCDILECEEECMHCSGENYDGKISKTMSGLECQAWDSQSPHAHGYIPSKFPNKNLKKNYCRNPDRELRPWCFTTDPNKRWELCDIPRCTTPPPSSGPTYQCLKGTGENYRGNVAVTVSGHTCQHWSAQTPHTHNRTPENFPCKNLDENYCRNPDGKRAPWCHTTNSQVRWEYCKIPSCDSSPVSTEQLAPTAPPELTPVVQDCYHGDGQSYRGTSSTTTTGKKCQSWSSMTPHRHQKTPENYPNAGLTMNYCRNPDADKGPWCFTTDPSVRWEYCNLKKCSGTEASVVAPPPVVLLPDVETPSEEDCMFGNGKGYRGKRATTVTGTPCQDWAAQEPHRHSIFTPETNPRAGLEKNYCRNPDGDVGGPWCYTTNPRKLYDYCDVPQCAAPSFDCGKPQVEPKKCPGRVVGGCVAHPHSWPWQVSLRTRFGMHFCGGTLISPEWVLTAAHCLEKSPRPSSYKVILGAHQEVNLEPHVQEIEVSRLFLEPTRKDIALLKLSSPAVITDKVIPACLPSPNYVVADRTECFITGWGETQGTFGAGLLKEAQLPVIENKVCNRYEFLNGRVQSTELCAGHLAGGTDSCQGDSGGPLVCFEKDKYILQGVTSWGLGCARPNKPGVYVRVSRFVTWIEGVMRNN
T1 sequence (P00747 97-810 limits assumed): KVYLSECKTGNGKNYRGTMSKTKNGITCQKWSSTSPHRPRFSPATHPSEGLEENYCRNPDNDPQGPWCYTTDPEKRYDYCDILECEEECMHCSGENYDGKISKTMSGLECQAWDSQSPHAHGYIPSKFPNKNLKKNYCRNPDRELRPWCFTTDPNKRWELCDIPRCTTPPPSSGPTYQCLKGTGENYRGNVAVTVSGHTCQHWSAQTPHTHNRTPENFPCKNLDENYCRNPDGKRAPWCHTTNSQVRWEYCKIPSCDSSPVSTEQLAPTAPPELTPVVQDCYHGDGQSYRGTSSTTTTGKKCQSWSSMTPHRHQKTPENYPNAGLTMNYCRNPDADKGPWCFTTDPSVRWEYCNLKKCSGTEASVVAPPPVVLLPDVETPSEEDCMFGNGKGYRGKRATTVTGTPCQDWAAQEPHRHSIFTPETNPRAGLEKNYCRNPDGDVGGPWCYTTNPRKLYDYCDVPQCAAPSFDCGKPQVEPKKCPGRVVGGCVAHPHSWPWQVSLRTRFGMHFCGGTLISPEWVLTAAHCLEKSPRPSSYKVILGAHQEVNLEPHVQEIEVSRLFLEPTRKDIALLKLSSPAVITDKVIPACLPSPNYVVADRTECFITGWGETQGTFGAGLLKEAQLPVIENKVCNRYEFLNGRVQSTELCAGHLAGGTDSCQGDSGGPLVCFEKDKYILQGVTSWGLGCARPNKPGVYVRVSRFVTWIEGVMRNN
T2 sequence (P00747 97-810 limits assumed): as above
Glu-plasminogen (Homo sapiens (Human)), sequence (P00747 20-810 limits assumed): as the sequence (P00747 20-810 limits assumed) above

Turning to “µ-plasmin-KD1L17R-KT complex (from UniProt P00747 561-580; P00747 581-810)”, in assay [1], the Kd worked out at 300 nM. This lies in the sub-micromolar range.

B1: plasmin-inhibiting polypeptide comprising the amino acid sequence set forth in SEQ ID NO:5 (designed binder)
chain: NAEICLLPLDYGPCRARLLRYYYDRYTQSCRQFLYGGCEGNANNFYTWEACDDACWRIEK
notes: Expressed in E. coli; also called 60A
Consider B1, for which the Ki with human plasmin [2] amounted to 2.36 nM. This molecule also returned a dissociation constant Kd in [3] of 130 nM. Further, the “IC50 (nM), inhibition of plasmin activity (S2251 hydrolysis)” value (shortened to “IC50 (nM), inhibition”) with human plasmin [4] was found to be 3.4 nM.

B2: plasmin-inhibiting polypeptide comprising the amino acid sequence set forth in SEQ ID NO:3 (designed binder)
chain: NAEICLLPLDTGPCRARLLRYYYDRYTQSCRQFLYGGCEGNANNFYTWEACDDACWRIEK
notes: Expressed in E. coli; also called DM; 60B
Consider B2, for which the results for the Ki (in assay [5]; with human plasmin [2]) were 5870 nM and 0.49 nM, respectively. The same molecule returned a Kd in assay [3] of 313 nM. In addition, the “IC50 (nM), inhibition” value in the assay with human plasmin [4] worked out at 1.8 nM.

B3: plasmin-inhibiting polypeptide comprising the amino acid sequence set forth in SEQ ID NO:4 (designed binder)
chain: NAEICLLPLDTGPCRARLLRYYYDRYTQSCRQFLYGGCEGNANNFYTWEACDDACWRIEKVPK
As for B3, the “IC50 (nM), inhibition” value with human plasmin [4] was 0.8 nM.

B4: plasmin-inhibiting polypeptide comprising the amino acid sequence set forth in SEQ ID NO:6 (designed binder)
chain: NAEICLLPLDYGPCRARLLRYYYDRYTQSCRQFLYGGCEGNANNFYTWEACDDACWRIEKVPK
notes: Purified recombinant polypeptide; also called 63-residue
Regarding B4, in the assay with human plasmin [4], the “IC50 (nM), inhibition” value is 1.8 nM. The affinity in assay [6], expressed as Kd, was 290 nM.

B5: KD1L17R-KT (designed binder)
chain: GNNAEICLLPLDYGPCRARLLRYYYDRYTQSCRQFLYGGCEGNANNFYTWEACDDACWRIEKVPK
notes: Both have C-terminal lysine; also called IIa cleaved KD1L17R-VT
As to B5, the Kd is 200 to 300 nM with Glu-plasminogen [7], 200 to 300 nM in assay [9], 210 nM in assay [10] and 280 nM with Glu-plasminogen [11]. The Ki with human plasmin [8] turned out to be 1 nM. For the same molecule, the koff in assay [10] came out at 0.00019 s⁻¹; with Glu-plasminogen [11], 0.00031 s⁻¹. Besides, the kon in [10] came to 910 M⁻¹ s⁻¹; with Glu-plasminogen [11], 1100 M⁻¹ s⁻¹.
